biological target: neonatal Fc receptor (FcRn) protein, immobilized on a column (UniProt P55899); test: FcRn affinity chromatography; FcRn immobilised on an affinity column (Roche); 30 µg antibody in 20 mM MES, 140 mM NaCl pH 5.5; 10 min at 20% buffer B (20 mM Tris, 140 mM NaCl pH 8.8), then 20-100% buffer B over 80 min; 0.5 mL/min
Chain of UniProt P55899 (P55899 24-297): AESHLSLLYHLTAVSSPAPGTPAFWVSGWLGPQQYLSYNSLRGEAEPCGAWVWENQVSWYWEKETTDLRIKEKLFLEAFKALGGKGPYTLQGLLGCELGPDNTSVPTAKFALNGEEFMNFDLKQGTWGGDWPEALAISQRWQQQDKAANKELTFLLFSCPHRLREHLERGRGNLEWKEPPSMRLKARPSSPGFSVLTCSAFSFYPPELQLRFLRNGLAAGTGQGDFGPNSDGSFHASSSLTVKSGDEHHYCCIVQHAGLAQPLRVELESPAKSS

FcRn ret. time, 46.4 min:
Bapi (control), control variant without mutations (antibody)
Bapi (monospecific bapineuzumab IgG with effector function reducing mutations L234A, L235A, P329G) (antibody)
Bapi-Fab8D3 (bispecific bapineuzumab IgG1, knobs-into-holes, with a single-chain Fab of the TfR antibody 8D3 on the C-terminus of one heavy chain; L234A, L235A, P329G) (bispecific antibody)

— publication PMC11028011
